Reference: patent US20210093714A1, “Combination and method for inhibiting the cancer cells” (NATIONAL TAIWAN UNIVERSITY, priority 2013, published 2021)

Experiments:
EGFR [1] = biological target: T1, EGFR (Homo sapiens, UniProt P00533); assay: Western blot of EGFR ubiquitination; assay type: cell-based; settings: CL1-5; FIG. 4C
T1 construct: endogenous in cells; host or cells: CL1-5 and A549 human lung adenocarcinoma cell lines
Protocol: (§1) Proteins ([…]) were separated by SDS-PAGE and transferred to a polyvinylidene difluoride membrane (Immobilon-P membrane; Millipore) by electrotransfer. The blot was blocked in a solution of 5% skim milk and 0.1% Tween 20 in PBS. Thereafter, membrane-bound proteins were probed with the following primary antibodies: CCN2, DAPK, phosphorylated ERK, ERK-1, phosphorylated Akt, Akt, TrkA, phosphorylated-Src, Src, b-actin, a-tubulin (Santa Cruz Biotechnology), p-EGFR, and EGFR (Cell Signaling Technology, Danvers, MA, USA). The membrane was washed and then incubated with HRP-conjugated secondary antibodies for 30 min. Enhanced chemiluminescence reagents (Amersham Pharmacia Biotech, Piscataway, N.J., USA) were employed to depict the protein bands on membranes. The light was captured on Kodak X-Omat Blue autoradiography film (PerkinElmer Life Sciences, Boston, Mass., USA).
(§2) CCN2 transfectants were seeded overnight and incubated in serum-free media for 24 h. For immunoprecipitations, cells were lysed in an RIPA buffer (150 mM NaCl, 50 mM Tris-base, 5 mM EDTA, 1% NP-40, and 0.25% deoxycholate; pH 7.4). Protein concentrations were determined using the BCA protein assay kit (Pierce, Rockford, Ill., USA). […]

[2] = tested on: lung adenocarcinoma cell line, CL1-5; assay: Anoikis assay (DNA fragmentation); assay type: cell-based, human; settings: FIG. 5A
Source text: This embodiment focuses on whether CCN2 can induce anoikis in lung adenocarcinoma cells in vitro and in vivo. At first, CCN2 induces anoikis which is induced by CCN2 in lung adenocarcinoma cells in vitro was observed by anoikis assay, the results shown in FIGS. 5A to 5C.

EGFR [3] = biological target: T1, EGFR; assay: FACS of membranous association between CCN2 and EGFR; assay type: cell-based; settings: CL1-5 and A549; rCCN2 100 ng/mL; FIG. 2B
Protocol: After washing, cells were stained with an FITC-labelled goat anti-rabbit secondary antibody (Santa Cruz Biotechnology) for 30 min in the dark. Analysis was then conducted with an FACS Calibur cytometer (Collaborative Biomedical, BD Biosciences).
In this embodiment, the concentration thereof is about 100 ng/mL.

[4] = tested on: lung adenocarcinoma cell line, CL1-5; assay: In vivo metastasis of i.v. injected CL1-5, celltracker probe; settings: nude mice, i.v. CL1-5; CCN2 1 mg/kg per day; FIG. 5G
Source text: (§3) Mice were anesthetized with isoflurane inhalation, and biofluorescence images were photographed with a CCD camera (IVIS; Xenogen Corporation, Caliper Life Sciences, Hopkinton, Mass., USA) at specific times. Imaging times ranged from 1 to 60 s, depending on the amount of fluorescence activity. Biofluorescence from the region of interest (ROI) was defined manually, and the data were expressed as photon flux (photons/s/cm^2/steradian). Background photon flux was defined using an ROI from a mouse that was not given an […]. injection of cancer cells. All biofluorescence data were collected and analyzed using IVIS. Celltracker dye was purchased from Molecular Probes, Invitrogen Corporation.
Cells were washed and resuspended in PBS. […] The mice were injected i.v. with cells so that we could measure the metastatic potential and perform biofluorescence imaging. The mice were killed after 8 weeks, and all of their organs were examined for metastasis formation. The lungs were removed and fixed in 10% formalin fixative. The number of lung-tumor colonies was counted under a dissecting microscope. […]

EGFR/c-Cbl complex = biological target: T2, EGFR/c-Cbl complex (Homo sapiens, UniProt P00533); assay: Immunoprecipitation/western blot of EGFR/c-Cbl complex formation; assay type: cell-based; settings: CL1-5 with MG132; 0 to 60 minutes; FIG. 4D
T2 construct: expressed in transfected cells; host or cells: CL1-5 (EGFR endogenous; HA-c-Cbl transiently transfected)
Protocol: as §1, §2

wild-type EGFR = assay: Western blot of EGFR expression, H1299 wild-type EGFR; assay type: cell-based, human; settings: H1299 lung adenocarcinoma cell lines (wild-type EGFR); 0 minutes to 4 hours; FIG. 7
Protocol: as §1
First, the effect of rCCN2 on the wild-type EGFR […] lung adenocarcinoma cell line, the mutated-type EGFR H1299 lung adenocarcinoma cell line, and the mutated-type EGFR H1975 lung adenocarcinoma cell line was observed by western blot analysis, the results shown in FIG. 7(Cell lysates of H1299 transfectants or H1975 cells were immunoblotted with anti-EGFR).

[5] = tested on: CL1-5 lung adenocarcinoma cell lines; assay: MTT Assay, cell survival of CL1-5, rCCN2 and cetuximab; assay type: cell-based, human; settings: attached CL1-5; rCCN2 alone 0 to 200 ng/mL; FIG. 8F
c-Src = assay: Western blot of c-Src autophosphorylation; assay type: cell-based, human; settings: CL1-5; 0 to 60 minutes; FIG. 3E
Protocol: as §1
Next, the effect of CCN2 on the formation of EGFR/Src complex and the phosphorylation of Src in the lung adenocarcinoma cell lines, CL1-5, A549 and CL1-0/siCCN2, was observed by western blot analysis, the results shown in FIGS. 3C to 3E.

[6] = tested on: lung adenocarcinoma cell line, CL1-5; assay: In vivo anoikis, high-frequency ultrasonic imaging, s.c. CL1-5; settings: nude mice, rCCN2 i.p. 1 mg/kg per day, FIG. 5F
Source text: as §3
Next, the effect of rCCN2 on anoikis in the lung adenocarcinoma cell line, CL1-5, (in vivo) was observed by high-frequency ultrasonic imaging, the results shown in FIG. 5F(top right indicated as the amplification view of the yellow squares). In this embodiment, the lung adenocarcinoma cell line, CL1-5, was injected into the s.c. region of nude mice and the mice was treated i.p. either with rCCN2 (1 mg/kg per day) or a control solution (citrate buffer), and anoikis in the lung adenocarcinoma cell line, CL1-5,(in vivo) was observed by high-frequency ultrasonic imaging.

EGFR ubiquitination degree (EGFR [1]): increase the EGFR ubiquitination degree
B1: Connective tissue growth factor (CCN2), wild-type full length (ligand, human, UniProt P29279 27-349, looked up)
chain: QNCSGPCRCPDEPAPRCPAGVSLVLDGCGCCRVCAKQLGELCTERDPCDPHKGLFCHFGSPANRKIGVCTAKDGAPCIFGGTVYRSGESFQSSCKYQCTCLDGAVGCMPLCSMDVRLPSPDCPFPRRVKLPGKCCEEWVCDEPKDQTVVGPALAAYRLEDTFGPDPTMIRANCLVQTTEWSACSKTCGMGISTRVTNDNASCRLEKQSRLCMVRPCEADLEENIKKGKKCIRTPKISKPIKFELSGCTSMKTYRAKFCGVCTDGRCCTPHRTTTLPVEFKCPDGEVMKKNMMFIKTCACHYNCPGDNDIFESLYYRKMYGDMA
notes: also called Recombinant CCN2; exogenous CCN2
DNA fragmentation ([2]; attached CL1-5, rCCN2 0, 20, 100, 200 ng/mL): no obvious difference
DNA fragmentation ([2]; suspended CL1-5, rCCN2 with higher concentration): increased
detection of membranous CCN2 (EGFR [3]): enhanced the detection of membranous CCN2
celltracker signals in lungs [4]: much weaker
number of metastatic lung nodules [4]: significantly reduced
formation of EGFR/c-Cbl complex (EGFR/c-Cbl complex): gradually increase the formation of EGFR/c-Cbl complex
expression of EGFR (wild-type EGFR): inhibit the expression of EGFR more significantly
cell survival [5]: not significantly reduced
autophosphorylation of c-Src Y416 (c-Src): gradually inhibit the autophosphorylation of c-Src^Y416
anoikis in vivo [6]: clearly appeared anoikis
